Data from the supplement of paper PMC9112550, “Optimization of the antimicrobial peptide Bac7 by deep mutational scanning” (BMC Biology, 2022).

system: Escherichia coli TOP10; test: shrunken log2 fold change of peptide-encoding DNA abundance (4.5 h post-induction vs induction); higher = less antimicrobial activity (less host growth inhibition); conditions: time post-induction: 4.5 h; library: site-saturation at positions 5, 18, 19, 20
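Also: peptides expressed intracellularly from a pBAD plasmid library in pooled LB shake-flask culture, induced with 0.3% L-arabinose, DNA abundance read by NGS, three biological replicates, DESeq2 with apeglm shrinkage.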

| Sequence | shrunken log2 fold change |
| --- | --- |
| RRIRHRPPRLPRPRPRPEKVPRP | -0.017 |
| RRIRYRPPRLPRPRPRPNDQPRP | -0.819 |
| RRIRLRPPRLPRPRPRPSPVPRP | -0.186 |
| RRIRQRPPRLPRPRPRPKSLPRP | -0.0933 |
| RRIRDRPPRLPRPRPRPNTEPRP | -0.0682 |
| RRIRTRPPRLPRPRPRPPRDPRP | 0.4 |
| RRIRMRPPRLPRPRPRPWPYPRP | 0.213 |
| RRIRQRPPRLPRPRPRPAITPRP | -0.114 |
| RRIRLRPPRLPRPRPRPIPWPRP | 0.0447 |
| RRIRQRPPRLPRPRPRPNGFPRP | -0.258 |
| RRIRWRPPRLPRPRPRPNGWPRP | 0.185 |
| RRIRVRPPRLPRPRPRPNRDPRP | -0.0911 |
| RRIRQRPPRLPRPRPRPLWIPRP | -0.0179 |
| RRIRVRPPRLPRPRPRPNCLPRP | -0.105 |
| RRIRCRPPRLPRPRPRPLVMPRP | -0.0664 |
| RRIRSRPPRLPRPRPRPQAIPRP | 0.0296 |
| RRIRTRPPRLPRPRPRPIMAPRP | -0.281 |
| RRIRTRPPRLPRPRPRPKFIPRP | -0.175 |
| RRIRRRPPRLPRPRPRPFANPRP | 0.00652 |
| RRIRLRPPRLPRPRPRPVFWPRP | 0.247 |
| RRIRDRPPRLPRPRPRPNNDPRP | 0.132 |
| RRIRARPPRLPRPRPRPSWHPRP | 0.0482 |
| RRIRDRPPRLPRPRPRPAEKPRP | 0.0328 |
| RRIRERPPRLPRPRPRPKEHPRP | -0.457 |
| RRIRQRPPRLPRPRPRPSSSPRP | -1.39 |

| Sequence | shrunken log2 fold change |
| --- | --- |
| RRIRNRPPRLPRPRPRPQMEPRP | -0.191 |
| RRIRTRPPRLPRPRPRPETEPRP | -0.016 |
| RRIRCRPPRLPRPRPRPCHWPRP | 0.0101 |
| RRIRVRPPRLPRPRPRPNSEPRP | -0.43 |
| RRIRPRPPRLPRPRPRPPMYPRP | -0.368 |
| RRIRARPPRLPRPRPRPHLWPRP | 0.645 |
| RRIRNRPPRLPRPRPRPSINPRP | -0.537 |
| RRIRCRPPRLPRPRPRPEAIPRP | 0.117 |
| RRIRSRPPRLPRPRPRPAMCPRP | -0.185 |
| RRIRQRPPRLPRPRPRPMQLPRP | -0.15 |
| RRIRKRPPRLPRPRPRPKESPRP | -0.0162 |
| RRIRTRPPRLPRPRPRPFMHPRP | -0.547 |
| RRIRTRPPRLPRPRPRPWHGPRP | -0.111 |
| RRIRFRPPRLPRPRPRPQQYPRP | -0.552 |
| RRIRTRPPRLPRPRPRPSWGPRP | -0.179 |
| RRIRSRPPRLPRPRPRPFEEPRP | -0.345 |
| RRIRVRPPRLPRPRPRPVVQPRP | -0.039 |
| RRIRVRPPRLPRPRPRPTMRPRP | 0.799 |
| RRIRVRPPRLPRPRPRPHGMPRP | -0.582 |
| RRIRDRPPRLPRPRPRPLTVPRP | -0.102 |
| RRIRSRPPRLPRPRPRPYMGPRP | -0.776 |
| RRIRNRPPRLPRPRPRPALTPRP | -0.158 |
| RRIRYRPPRLPRPRPRPPIHPRP | -0.958 |
| RRIRLRPPRLPRPRPRPTQDPRP | 0.488 |
| RRIRIRPPRLPRPRPRPQWNPRP | -0.316 |

| Sequence | shrunken log2 fold change |
| --- | --- |
| RRIRGRPPRLPRPRPRPCLTPRP | 0.496 |
| RRIRYRPPRLPRPRPRPGVQPRP | 0.0651 |
| RRIRERPPRLPRPRPRPRVEPRP | -0.182 |
| RRIRIRPPRLPRPRPRPHGFPRP | -0.383 |
| RRIRNRPPRLPRPRPRPSGFPRP | 0.0185 |
| RRIRMRPPRLPRPRPRPFRLPRP | -0.1 |
| RRIRNRPPRLPRPRPRPHFWPRP | -0.285 |
| RRIRERPPRLPRPRPRPKCWPRP | 0.23 |
| RRIRDRPPRLPRPRPRPSWGPRP | 0.0384 |
| RRIRCRPPRLPRPRPRPKILPRP | -0.0835 |
| RRIRGRPPRLPRPRPRPDNNPRP | 0.388 |
| RRIRTRPPRLPRPRPRPPCPPRP | 0.15 |
| RRIRLRPPRLPRPRPRPANIPRP | -0.501 |
| RRIRMRPPRLPRPRPRPPCPPRP | 0.564 |
| RRIRGRPPRLPRPRPRPTNAPRP | 0.923 |
| RRIRLRPPRLPRPRPRPHDAPRP | -0.0938 |
| RRIRPRPPRLPRPRPRPRMDPRP | 0.176 |
| RRIRSRPPRLPRPRPRPVAYPRP | -0.0936 |
| RRIRNRPPRLPRPRPRPWMRPRP | 0.311 |
| RRIRKRPPRLPRPRPRPPPMPRP | 0.826 |
| RRIRQRPPRLPRPRPRPRYQPRP | -0.0107 |
| RRIRGRPPRLPRPRPRPQYYPRP | -0.399 |
| RRIRLRPPRLPRPRPRPNGAPRP | 0.0311 |
| RRIRSRPPRLPRPRPRPQEIPRP | -0.16 |
| RRIRSRPPRLPRPRPRPDAQPRP | 0.406 |

| Sequence | shrunken log2 fold change |
| --- | --- |
| RRIRDRPPRLPRPRPRPTNNPRP | 0.0553 |
| RRIRDRPPRLPRPRPRPGDAPRP | 0.207 |
| RRIRHRPPRLPRPRPRPGCMPRP | -0.0922 |
| RRIRYRPPRLPRPRPRPYFMPRP | -1.17 |
| RRIRTRPPRLPRPRPRPRAEPRP | 0.28 |
| RRIRFRPPRLPRPRPRPRIKPRP | -0.168 |
| RRIRHRPPRLPRPRPRPEIEPRP | -0.0966 |
| RRIRHRPPRLPRPRPRPNNNPRP | -1.09 |
| RRIRLRPPRLPRPRPRPFTAPRP | -0.625 |
| RRIRKRPPRLPRPRPRPFIIPRP | -0.268 |
| RRIRLRPPRLPRPRPRPYGWPRP | -0.265 |
| RRIRQRPPRLPRPRPRPTSKPRP | -0.189 |
| RRIRPRPPRLPRPRPRPASWPRP | 0.362 |
| RRIRNRPPRLPRPRPRPTMWPRP | -0.0923 |
| RRIRDRPPRLPRPRPRPSTIPRP | -0.295 |
| RRIRLRPPRLPRPRPRPSNDPRP | 2.11 |
| RRIRIRPPRLPRPRPRPVKIPRP | 0.0113 |
| RRIRGRPPRLPRPRPRPHVQPRP | 0.262 |
| RRIRARPPRLPRPRPRPVIHPRP | -0.307 |
| RRIRSRPPRLPRPRPRPQPTPRP | 0.447 |
| RRIRDRPPRLPRPRPRPADPPRP | -0.155 |
| RRIRVRPPRLPRPRPRPQLLPRP | -0.0606 |
| RRIRCRPPRLPRPRPRPIWKPRP | 0.0906 |
| RRIRERPPRLPRPRPRPHRGPRP | 0.0526 |
| RRIRNRPPRLPRPRPRPSCWPRP | 0.0544 |

| Sequence | shrunken log2 fold change |
| --- | --- |
| RRIRNRPPRLPRPRPRPVQKPRP | -0.0122 |
| RRIRRRPPRLPRPRPRPPSTPRP | 0.585 |
| RRIRKRPPRLPRPRPRPRFPPRP | 0.647 |
| RRIRFRPPRLPRPRPRPTNIPRP | -0.959 |
| RRIRFRPPRLPRPRPRPMTMPRP | -0.132 |
| RRIRPRPPRLPRPRPRPASGPRP | 0.194 |
| RRIRSRPPRLPRPRPRPISCPRP | -0.0707 |
| RRIRNRPPRLPRPRPRPEKAPRP | -0.0149 |
| RRIRWRPPRLPRPRPRPCVEPRP | 0.153 |
| RRIRCRPPRLPRPRPRPKFYPRP | -0.309 |
| RRIRHRPPRLPRPRPRPRQCPRP | -0.0969 |
| RRIRERPPRLPRPRPRPGIFPRP | 0.099 |
| RRIRRRPPRLPRPRPRPAIAPRP | 0.468 |
| RRIRQRPPRLPRPRPRPVTYPRP | -0.219 |
| RRIRNRPPRLPRPRPRPHCEPRP | -0.778 |
| RRIRHRPPRLPRPRPRPFAPPRP | -0.0777 |
| RRIRSRPPRLPRPRPRPHKAPRP | -0.1 |
| RRIRLRPPRLPRPRPRPIQMPRP | -0.0252 |
| RRIRNRPPRLPRPRPRPHMIPRP | -0.168 |
| RRIRVRPPRLPRPRPRPHERPRP | -0.13 |
| RRIRQRPPRLPRPRPRPGLNPRP | -0.129 |
| RRIRKRPPRLPRPRPRPPRTPRP | 0.829 |
| RRIRSRPPRLPRPRPRPCLIPRP | -0.197 |
| RRIRKRPPRLPRPRPRPIHAPRP | -0.000921 |
| RRIRWRPPRLPRPRPRPTRAPRP | 0.909 |

| Sequence | shrunken log2 fold change |
| --- | --- |
| RRIRTRPPRLPRPRPRPFRQPRP | 0.0156 |
| RRIRHRPPRLPRPRPRPNQSPRP | -0.3 |
| RRIRMRPPRLPRPRPRPENGPRP | 0.0676 |
| RRIRQRPPRLPRPRPRPVTAPRP | -0.362 |
| RRIRSRPPRLPRPRPRPAEQPRP | 0.0415 |
| RRIRRRPPRLPRPRPRPAGFPRP | 0.439 |
| RRIRTRPPRLPRPRPRPETGPRP | -0.00371 |
| RRIRMRPPRLPRPRPRPEIIPRP | 2.84 |
| RRIRCRPPRLPRPRPRPHSFPRP | -0.404 |
| RRIRERPPRLPRPRPRPMHWPRP | -0.0407 |
| RRIRKRPPRLPRPRPRPLLMPRP | -0.109 |
| RRIRPRPPRLPRPRPRPAMNPRP | 0.193 |
| RRIRCRPPRLPRPRPRPEDYPRP | -0.304 |
| RRIRCRPPRLPRPRPRPEIIPRP | -0.363 |
| RRIRMRPPRLPRPRPRPEGEPRP | 0.123 |
| RRIRMRPPRLPRPRPRPLIPPRP | -0.0413 |
| RRIRCRPPRLPRPRPRPSGCPRP | -0.221 |
| RRIRGRPPRLPRPRPRPVTSPRP | 0.203 |
| RRIRERPPRLPRPRPRPKLMPRP | 0.0215 |
| RRIRERPPRLPRPRPRPHGHPRP | 0.0257 |
| RRIRCRPPRLPRPRPRPFSCPRP | 0.0218 |
| RRIRSRPPRLPRPRPRPVYAPRP | 0.0491 |
| RRIRIRPPRLPRPRPRPYGQPRP | -0.284 |
| RRIRWRPPRLPRPRPRPPTDPRP | 0.415 |
| RRIRQRPPRLPRPRPRPKVTPRP | 0.0375 |
